The text below walks through data of article doi:10.1101/2022.05.10.491262.

The test concerns the target T1, human alpha-2-macroglobulin, native state (nA2M) (human), P01023.
T1 chain: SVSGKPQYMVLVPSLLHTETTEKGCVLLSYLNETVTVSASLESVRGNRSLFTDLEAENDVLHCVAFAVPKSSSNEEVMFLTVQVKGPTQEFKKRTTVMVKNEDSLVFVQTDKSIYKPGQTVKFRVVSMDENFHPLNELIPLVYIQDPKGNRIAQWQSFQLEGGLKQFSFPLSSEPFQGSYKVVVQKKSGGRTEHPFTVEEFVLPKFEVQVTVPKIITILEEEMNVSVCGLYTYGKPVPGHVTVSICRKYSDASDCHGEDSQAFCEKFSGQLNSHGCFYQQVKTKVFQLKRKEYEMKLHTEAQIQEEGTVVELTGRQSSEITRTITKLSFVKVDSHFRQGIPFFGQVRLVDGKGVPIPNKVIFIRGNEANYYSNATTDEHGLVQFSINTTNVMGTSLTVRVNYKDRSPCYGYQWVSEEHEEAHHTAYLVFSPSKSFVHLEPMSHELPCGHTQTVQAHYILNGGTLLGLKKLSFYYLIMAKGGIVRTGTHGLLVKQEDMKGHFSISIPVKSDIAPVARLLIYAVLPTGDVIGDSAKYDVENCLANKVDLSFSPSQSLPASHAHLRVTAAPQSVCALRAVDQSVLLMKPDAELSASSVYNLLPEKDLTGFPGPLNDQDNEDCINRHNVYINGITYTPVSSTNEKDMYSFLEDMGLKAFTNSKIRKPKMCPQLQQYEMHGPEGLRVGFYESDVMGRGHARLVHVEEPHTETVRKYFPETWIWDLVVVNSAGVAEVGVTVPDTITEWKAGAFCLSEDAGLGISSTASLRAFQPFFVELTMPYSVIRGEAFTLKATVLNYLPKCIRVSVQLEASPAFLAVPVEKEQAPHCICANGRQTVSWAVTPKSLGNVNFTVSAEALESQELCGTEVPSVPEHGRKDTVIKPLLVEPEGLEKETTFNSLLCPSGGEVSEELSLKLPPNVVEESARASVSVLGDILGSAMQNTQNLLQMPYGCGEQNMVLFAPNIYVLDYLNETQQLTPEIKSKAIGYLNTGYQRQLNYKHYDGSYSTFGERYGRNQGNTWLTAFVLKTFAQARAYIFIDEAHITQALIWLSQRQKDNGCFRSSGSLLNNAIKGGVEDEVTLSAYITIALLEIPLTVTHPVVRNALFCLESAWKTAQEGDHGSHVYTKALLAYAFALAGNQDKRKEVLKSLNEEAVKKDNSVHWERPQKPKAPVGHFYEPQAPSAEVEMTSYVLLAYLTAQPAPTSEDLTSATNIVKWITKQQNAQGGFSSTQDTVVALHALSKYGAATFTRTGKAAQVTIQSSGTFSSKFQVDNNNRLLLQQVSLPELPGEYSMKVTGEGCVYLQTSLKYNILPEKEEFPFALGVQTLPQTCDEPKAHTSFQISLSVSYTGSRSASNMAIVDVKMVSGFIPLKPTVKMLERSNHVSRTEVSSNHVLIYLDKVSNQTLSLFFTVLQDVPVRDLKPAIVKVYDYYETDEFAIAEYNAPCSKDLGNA
Kind of test: ITC. In general terms: Isothermal titration calorimetry measures the heat released or taken up as one component is titrated into another.

B1: human trypsin, P35030 81-304 (enzyme)
chain: IVGGYTCEENSLPYQVSLNSGSHFCGGSLISEQWVVSAAHCYKTRIQVRLGEHNIKVLEGNEQFINAAKIIRHPKYNRDTLDNDIMLIKLSSPAVINARVSTISLPTTPPAAGTECLISGWGNTLSFGADYPDELKCLDAPVLTQAECKASYPGKITNSMFCVGFLEGGKDSCQRDSGGPVVCNGQLQGVVSWGHGCAWKNRPGVYTKVYNYVDWIKDTIAANS
modifications: not checked
In the case of B1, the stoichiometry N (trypsin per hA2M) was 1.2.
